Results as given in PMC5828395 (Genes & Development, 2018).
Where no end group is shown, it is not given here.

Legend:
[1] = target: GAS41 YEATS domain (amino acids 15–159) (human) (UniProt O95619); assay: ITC
[2] = target: GAS41 YEATS domain (amino acids 15–159) (human, UniProt O95619 15-159); assay: ITC
Chain of GAS41 YEATS domain (amino acids 15–159) (O95619 15-159): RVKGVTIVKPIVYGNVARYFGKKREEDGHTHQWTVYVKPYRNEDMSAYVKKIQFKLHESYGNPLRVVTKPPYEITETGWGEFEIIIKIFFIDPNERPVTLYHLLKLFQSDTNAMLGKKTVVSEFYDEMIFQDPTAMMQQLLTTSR

Chain of GAS41 YEATS domain (amino acids 15–159) (human) (O95619 15-159): as above

| Molecule | Kd [1] [µM] | Kd [2] [µM] |
| --- | --- | --- |
| H3_(15–39)K27ac peptide (from UniProt P68431 16-40) | 32.7 | – |
| ARTKQTARKSTGGK(Ac)A (peptide, UniProt P68431 2-16, looked up) [H3_(1–15)K14ac peptide] | – | 13 |
